Patent US20090156490A1
One block for each binder: values may come before it. Where no end group is shown, it is not given here. bis‑dPEG6 = hexa-ethylene glycol bifunctional linker (bis-dPEG6 NHS ester)

Experiments:
[1] = target: soluble HLA-DQ2 heterodimer (purified, thrombin-treated DQ2-ligand fusion protein) (human); experiment: peptide exchange kinetics (HPSEC, fluorescein-labelled peptide, soluble DQ2)
[2] = target: soluble HLA-DQ2 heterodimer (purified, thrombin-treated DQ2-ligand fusion protein) (human); experiment: peptide exchange kinetics (HPSEC, fluorescein-labelled peptide, soluble DQ2), pH 7.3
[3] = target: T1, 33-mer gliadin peptide (non-deamidated, α2-gliadin residues 57-89)
T1 chain: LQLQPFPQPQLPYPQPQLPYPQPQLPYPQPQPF

[4] = target: soluble HLA-DQ2 heterodimer (purified, thrombin-treated DQ2-ligand fusion protein) (human); experiment: peptide exchange assay (HPSEC, fluorescein-labelled peptide 0.18 µM, soluble DQ2 4.7 µM, 37 C, 45 h), pH 5.5

Binder: {5(6)‑carboxyfluorescein}-LQLQPFPQPELPYPQPELPYPQPELPYPQPQPF (not fully specified) [33-mer peptide 1 (deamidated 33-mer from α2-gliadin)]
time to half maximal DQ2 occupancy [1]: 8 h | maximum occupancy [2]: 28%

B1: human tissue transglutaminase (tTGase) (protein)
chain: AEELVLERCDLELETNGRDHHTADLCREKLVVRRGQPFWLTLHFEGRNYEASVDSLTFSVVTGPAPSQEAGTKARFPLRDAVEEGDWTATVVDQQDCTLSLQLTTPANAPIGLYRLSLEASTGYQGSSFVLGHFILLFNAWCPADAVYLDSEEERQEYVLTQQGFIYQGSAKFIKNIPWNFGQFEDGILDICLILLDVNPKFLKNAGRDCSRRSSPVYVGRVVSGMVNCNDDQGVLLGRWDNNYGDGVSPMSWIGSVDILRRWKNHGCQRVKYGQCWVFAAVACTVLRCLGIPTRVVTNYNSAHDQNSNLLIEYFRNEFGEIQGDKSEMIWNFHCWVESWMTRPDLQPGYEGWQALDPTPQEKSEGTYCCGPVPVRAIKEGDLSTKYDAPFVFAEVNADVVDWIQQDDGSVHKSINRSLIVGLKISTKSVGRDEREDITHTYKYPEGSSEEREAFTRANHLNKLAEKEETGMAMRIRVGQSMNMGSDFDVFAHITNNTAEEYVCRLLLCARTVSYNGILGPECGTKYLLNLNLEPFSEKSVPLCILYEKYRDCLTESNLIKVRALLVEPVINSYLLAERDLYLENPEIKIRILGEPKQKRKLVAEVSLQNPLPVALEGCTFTVEGAGLTEEQKTVEIPDPVEAGEEVKVRMDLLPLHMGLHKLVVNFESDKLKAVKGFRNVIIGPA
kcat/KM of deamidation [3]: kcat/KM=440 min-1 mM-1

More lines, now with the values ahead:

binding maximum (DQ2 bound peptide as a percentage of total peptide) [4]: 7%
Binder: {5(6)‑carboxyfluorescein}-PQPELPYPQ (not fully specified) [peptide 3 (minimal αII epitope)]

time to half maximal DQ2 occupancy [1]: 2.5 h | maximum occupancy [2]: 40%
B2: dimeric peptide 22 (two copies of L11K peptide 17 crosslinked through the Lys side chains by a hexa-ethylene glycol bifunctional linker) (peptide)
peptide: {5‑(and 6-)carboxyfluorescein}-LQLQPFPQPEK(bis‑dPEG6)PYPQPELPY
modifications: also: dimer: two copies crosslinked through Lys11 side chains via hexa-ethylene glycol linker
